In publication PMC5036187 (Scientific Reports, 2016):

Target: T1, Glypican-3 (GPC3) on G1 cells (Homo sapiens, UniProt P51654)
T1 construct: also called GPC3+ cells (G1)
Test: flow cytometry on cells
Details: one partner purified

T1 sequence (P51654 25-580): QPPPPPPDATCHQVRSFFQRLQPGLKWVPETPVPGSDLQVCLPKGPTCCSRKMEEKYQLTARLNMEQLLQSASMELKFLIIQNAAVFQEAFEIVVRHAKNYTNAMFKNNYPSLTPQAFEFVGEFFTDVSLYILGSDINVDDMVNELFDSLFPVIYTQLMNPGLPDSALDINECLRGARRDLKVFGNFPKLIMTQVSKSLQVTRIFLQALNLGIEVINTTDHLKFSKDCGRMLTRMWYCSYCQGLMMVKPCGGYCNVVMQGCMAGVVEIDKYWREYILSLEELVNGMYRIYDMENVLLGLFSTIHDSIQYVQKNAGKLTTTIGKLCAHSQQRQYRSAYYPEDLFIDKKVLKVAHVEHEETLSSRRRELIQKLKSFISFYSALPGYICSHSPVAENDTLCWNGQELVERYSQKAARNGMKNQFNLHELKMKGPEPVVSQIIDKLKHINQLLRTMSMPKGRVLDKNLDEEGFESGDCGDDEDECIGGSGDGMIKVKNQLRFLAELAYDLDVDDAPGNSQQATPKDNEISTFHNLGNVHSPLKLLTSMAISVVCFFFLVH

Row | Binder | EC50 [nM]
1 | humanized YP7 antibody, IgG format (human IgG1 kappa) (antibody, V domains shown, also called hYP7; hYP7 IgG) VH: EVQLVESGGGLVQPGGSLRLSCAASGFTFNKNAMNWVRQAPGKGLEWVGRIRNKTNNYATYYADSVKARFTISRDDSKNSLYLQMNSLKTEDTAVYYCVAGNSFAYWGQGTLVTVS VL: not shown | 0.7
2 | humanized YP9.1b antibody, IgG format (human IgG1 kappa) (antibody, V domains shown, also called hYP9.1b; hYP9.1b IgG) VH: EVQLVESGGGLVQPGGSLRLSCAASGFNFNTNAMNWVRQAPGKGLEWVGRVRNKTNNYATYYADSVKDRFTISRDDSKNSLYLQMNSLKTEDTAVYYCVAGNSFAYWGQGTLVTVS VL: not shown | 0.4
